# Data: PMC4313621, “Hydrophobic mismatch sorts SNARE proteins into distinct membrane domains” (Nature Communications, 2015)
# Ends that are not written are not given here.
# B1: Syntaxin 4 TMD (residues 262-297; sx-4TM) (peptide, UniProt Q12846 262-297, looked up)
# peptide: ALENQKKARKKKVLIAICVSITVVLLAVIIGVTVVG
# modifications: also: N-terminus: Rhodamine Red or Atto647N
# notes: syntaxin 4 transmembrane domain with juxtamembrane stretch, Homo sapiens, residues 262-297; also called syntaxin 4 truncation mutant; source: synthetic peptide (Fmoc solid phase synthesis)
# Molecular target: the molecule itself
# Assay: FRET or BRET; donor- (Rhodamine Red) and acceptor- (Atto647N) labelled peptides reconstituted together in 100 nm LUVs of C14:1, C16:1, C18:1 or C20:1 PC, without or with 30 mol% cholesterol; protein-to-lipid 1:1000; 50 mM HEPES, 150 mM KCl, pH 7.4
protein,measurement,value
B1,binding result,binds
